Reference: patent US20150023979A1 (VALDOSPAN, published 2015)

T1: HPV56 E7 protein, recombinant (His-TEV-E7 fusion from E. coli) (Human Papilloma Virus type 56 (HPV56), UniProt P36833 1-105, CKII phosphorylation of the consensus site serines in the antigen preparation of Example 2)
T1 construct: mature; also called VE7_HPV56; not shown: N-terminal 6x Histidine tag and TEV cleavage site of the vector
T1 sequence: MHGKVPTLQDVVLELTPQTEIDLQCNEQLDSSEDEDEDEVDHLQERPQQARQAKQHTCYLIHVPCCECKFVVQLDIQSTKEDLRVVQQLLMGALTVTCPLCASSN

T2: HPV35 E7 protein, recombinant (His-TEV-E7 fusion from E. coli) (Human Papilloma Virus type 35 (HPV35), UniProt P27230 1-99, CKII phosphorylation of the consensus site serines in the antigen preparation of Example 2)
T2 construct: mature; also called VE7_HPV35; not shown: N-terminal 6x Histidine tag and TEV cleavage site of the vector
T2 sequence: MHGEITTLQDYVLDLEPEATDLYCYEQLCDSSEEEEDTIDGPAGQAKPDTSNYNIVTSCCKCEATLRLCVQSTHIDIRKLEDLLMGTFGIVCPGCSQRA

T3: HPV16 E7 protein, recombinant (His-TEV-E7 fusion from E. coli) (Human Papilloma Virus type 16 (HPV16), UniProt P03129 1-98, CKII phosphoserines at E7 S31 and S32 (chain 1 pos 49 and 50) in the antigen preparation of Example 2, written S; biotin on primary amines (Sulfo-NHS-LC Biotin) in the SPR assay.)
T3 construct: also called VE7_HPV16
T3 sequence: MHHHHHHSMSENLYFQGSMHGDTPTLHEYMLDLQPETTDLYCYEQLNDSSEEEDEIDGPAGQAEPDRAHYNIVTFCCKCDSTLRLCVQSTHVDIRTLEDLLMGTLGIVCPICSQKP

T4: HPV33 E7 protein, recombinant (His-TEV-E7 fusion from E. coli) (Human Papilloma Virus type 33 (HPV33), UniProt P06429 1-97, CKII phosphorylation of the consensus site serines in the antigen preparation of Example 2; biotin on primary amines in the SPR assay)
T4 construct: mature; also called VE7_HPV33; not shown: N-terminal 6x Histidine tag and TEV cleavage site of the vector
T4 sequence: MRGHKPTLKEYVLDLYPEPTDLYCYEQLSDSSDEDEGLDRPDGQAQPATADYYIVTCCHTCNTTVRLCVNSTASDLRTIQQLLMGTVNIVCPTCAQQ

T5: HPV31 E7 protein, recombinant (His-TEV-E7 fusion from E. coli) (Human Papilloma Virus type 31 (HPV31), UniProt P17387 1-98, CKII phosphorylation of the consensus site serines in the antigen preparation of Example 2)
T5 construct: mature; also called VE7_HPV31; not shown: N-terminal 6x Histidine tag and TEV cleavage site of the vector
T5 sequence: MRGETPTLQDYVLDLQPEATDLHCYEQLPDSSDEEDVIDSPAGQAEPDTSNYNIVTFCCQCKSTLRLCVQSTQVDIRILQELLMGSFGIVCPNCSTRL

T6: HPV52 E7 protein, recombinant (His-TEV-E7 fusion from E. coli) (Human Papilloma Virus type 52 (HPV52), UniProt P36831 1-99, CKII phosphorylation of the consensus site serines in the antigen preparation of Example 2)
T6 construct: mature; also called VE7_HPV52; not shown: N-terminal 6x Histidine tag and TEV cleavage site of the vector
T6 sequence: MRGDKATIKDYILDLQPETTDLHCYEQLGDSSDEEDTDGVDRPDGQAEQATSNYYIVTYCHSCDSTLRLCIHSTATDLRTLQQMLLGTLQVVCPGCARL

T7: HPV38 E7 protein (beta-papillomavirus), recombinant (His-TEV-E7 fusion from E. coli) (Human Papilloma Virus type 38 (HPV38), UniProt Q80908 1-100)
T7 construct: mature; also called HPVE7 38; VE7_HPV38; not shown: N-terminal 6x Histidine tag and TEV cleavage site of the vector
T7 sequence: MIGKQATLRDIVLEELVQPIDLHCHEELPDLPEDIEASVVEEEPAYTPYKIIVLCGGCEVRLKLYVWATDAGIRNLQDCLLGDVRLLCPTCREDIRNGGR

T8: HPV5 E7 protein (beta-papillomavirus), recombinant (His-TEV-E7 fusion from E. coli) (Human Papilloma Virus type 5 (HPV5), UniProt P06932 1-103)
T8 construct: mature; also called VE7_HPV05; not shown: N-terminal 6x Histidine tag and TEV cleavage site of the vector
T8 sequence: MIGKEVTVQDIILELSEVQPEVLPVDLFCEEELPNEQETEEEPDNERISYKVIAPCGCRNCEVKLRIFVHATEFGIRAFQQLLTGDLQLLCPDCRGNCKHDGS

T9: HPV6 E7 protein (low risk type), recombinant (His-TEV-E7 fusion from E. coli) (Human Papilloma Virus type 6 (HPV6), UniProt Q84292 1-98)
T9 construct: mature; the only HPV6 entry in the list of constructs is VE7_HPV6A; also called VE7_HPV6A; not shown: N-terminal 6x Histidine tag and TEV cleavage site of the vector
T9 sequence: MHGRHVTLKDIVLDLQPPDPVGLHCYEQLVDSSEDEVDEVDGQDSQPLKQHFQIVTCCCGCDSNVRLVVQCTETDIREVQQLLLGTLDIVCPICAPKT

T10: HPV11 E7 protein (low risk type), recombinant (His-TEV-E7 fusion from E. coli) (Human Papilloma Virus type 11 (HPV11), UniProt P04020 1-98)
T10 construct: mature; also called VE7_HPV11; not shown: N-terminal 6x Histidine tag and TEV cleavage site of the vector
T10 sequence: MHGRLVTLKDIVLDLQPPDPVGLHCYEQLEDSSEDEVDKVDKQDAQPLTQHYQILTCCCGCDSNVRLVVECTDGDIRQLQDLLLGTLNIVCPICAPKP


Tests used:
[1] = biological target: T1, HPV56 E7 protein, recombinant …; assay: ELISA and dot-blot, semiquantitative crossreactivity
Description: (§1) Using ELISA and dot-blot techniques semiquantitative crossreactivities of the isolated mAbs was analysed. For this various mAbs were tested against the accepted high risk species.

[2] = biological target: T2, HPV35 E7 protein, recombinant …; assay: ELISA and dot-blot, semiquantitative crossreactivity (+ weak interaction)
Description: as §1

[3] = biological target: T3, HPV16 E7 protein, recombinant …; assay: SPR (BIAcore X100), biotin-E7 on streptavidin SA chip, antibody as analyte, bivalent analyte fit, 25 C
[4] = biological target: T4, HPV33 E7 protein, recombinant …; assay: ELISA and dot-blot, semiquantitative crossreactivity (++ strong positive)
Description: as §1

[5] = biological target: T5, HPV31 E7 protein, recombinant …; assay: as above
Description: as §1

[6] = biological target: T6, HPV52 E7 protein, recombinant …; assay: as above
Description: as §1

[7] = biological target: T7, HPV38 E7 protein (beta-papillomavirus), …; assay: ELISA and dot-blot
[8] = biological target: T8, HPV5 E7 protein (beta-papillomavirus), …; assay: ELISA and dot-blot
[9] = biological target: T9, HPV6 E7 protein (low risk type), …; assay: ELISA and dot-blot
[10] = biological target: T10, HPV11 E7 protein (low risk type), …; assay: ELISA and dot-blot

Row | Binder | binding result [1] | binding result [2] | Kd [3] | kon [3] | binding result [4] | binding result [5] | binding result [6] | binding result [7] | binding result [8] | binding result [9] | binding result [10]
1 | ACAB161 (antibody, IgG2a, V domains shown, the printed entries run on into the first residues of the constant domains; also called HPV16E7 IgG2a antibody ACAB161) VH: EVMLVESGGGLVKPGGSLKLSCAASGFTFSRYTMSWVRQTPEKRLEWVATISSGGTNTNYTDSVKGRFTISRDNAKNNLYLQMSSLRSEDTALYYCTRGVRRGDGYAMDYWGQGTSVTVSS VL: DIVLTQAAPSVPVTPGESVSISCRSTKSLLHSNGNTYLYWFLQRPGQSPQALIYRTSNLASGVPDRFSGSGSGTAFTLRISRVEAEDVGVYYCMQHLEYPLTFGAGTKLELKR | no binding | binds | 3.38 nM | 58400 M⁻¹ s⁻¹ | binds | binds | binds | no binding | no binding | no binding | no binding
2 | ACAB164 (antibody, V domains shown, the printed entries run on into the first residues of the constant domains; also called HPV16E7 IgG2a antibody ACAB164) VH: EVQLQQSGLALVQPGASVKISCRTSGYTFTEYTLHWVKQSHGKSLEWIGGINPNNGSPKYNQKFKGKATLTVDKSSSTAYMELRSLTSEDSAVYYCARLDINSFFDYWGQGTTLTVSS VL: DVVMTQSPLSLPVSLGDQASISCRSSQSLVHSNGNTYLQWYLQKPGQSPKLLIYKLSNRFSGVPDRFSGSGSGTDFTLKISRVEAEDLGVYSCSQTTHVPPTFGGGTKLEIKR | no binding | – | 0.052 nM | 261000 M⁻¹ s⁻¹ | binds | binds | binds | no binding | no binding | no binding | no binding
3 | ACAB452 (antibody, IgG1, V domains shown, also called HPV45E7 IgG1 antibody ACAB452) VH: DVQLQESGPGLVKPSQSLSLTCTVTGYSITSDYAWNWIRQFPGNKLEWVGYITYSGSTNYNPSLKSRISITRDTSKNQFFLQFNSVTSEDTATYFCARSWFAYWGQGTLVTVSS VL: DIVMTQTPLSLPVSLGDQASISCRSSQSLVHSNGNTYLHWFLQKPGQSPKLLIYKVSNRFSGVPDRFSGSGSGTDFTLKISRVEAEDLGVYFCLQSAHVPLTFGAGTKLELTR | – | binds | – | – | – | – | – | no binding | no binding | no binding | no binding
